Results published in US20250042970A1 (AURINIA PHARMACEUTICALS, published 2025).
Changes are numbered by the printed parent chain. Read-outs that look alike come from different tables or passages of the source. Ends that are not written are not given here.

B1: BAv9-1-[K46-A50]del-pIg22 (Fc fusion, human)
chain: AGQCSQNEYFDHLIRACIPCQLRCSSNTPPLTCQRYCNAGVTNSV
modifications: cysteine pairing not given here; also: fused to PIg22 Fc, not in chain
notes: domain: Fc; also called BAv9-1-des[K46-A50]-PIg22; not shown: PIg22: chimeric Fc, CH2 domain of PIg18 (human IgG2 derivative) and CH3 domain of human IgG1
B2: Variant 50238475-Ig (Fc fusion, human)
chain: AGQCSQNEYYDHLIRACISCQIRCSSNNPPPICQRYCNAGVTNSVKGTNAERKSSVECPPSPAPPVAGPSVFLFPPKPKDTLMISRTPEVTCVVVDVSHEDPEVQFNWYVDGVEVHNAKTKPREEQFNSTFRVVSVLTVVHQDWLNGKEYKCKVSNKGLPAPIEKTISKTKGQPREPQVYTLPPSREEMTKNQVSLTCLVKGFYPSDISVEWESNGQPENNYKTTPPMLDSDGSFFLYSKLTVDKSRWQQGNVFSCSVMHEALHNHYTQKSLSLSPGK
notes: domain: Fc; also called Parent 9; Variant 50238475-PIg18
B3: BAv9-1-5L-pIg18 (Fc fusion)
chain: AGQCSQNEYFDHLIRACIPCQLRCSSNTPPLTCQRYCNAGVTNSVGGGGS
notes: not shown: PIg18: human IgG2 Fc, Ser at Fc positions 4, 5, 11 (native Cys)
B4: BAv9-1-pIg22 (Fc fusion, human)
chain: B3 chain with G46K, G48T, G49N, S50A
notes: domain: Fc; not shown: PIg22: chimeric Fc, CH2 domain of PIg18 (human IgG2 derivative) and CH3 domain of human IgG1
B5: BAv85-Ig (Fc fusion)
chain: B3 chain with I14V, L22A, G46K, G48T, G49N, S50A
notes: also called BAv85 (2)-Ig; BAv85-pIg18; not shown: PIg18: human IgG2 Fc, Ser at Fc positions 4, 5, 11 (native Cys)
B6: BAv54-Ig (Fc fusion)
chain: B3 chain with I14S, L22V, G46K, G48T, G49N, S50A
notes: as for B3

Columns and labels:
[1] = target: T1, FLAG-tagged recombinant human APRIL (human, UniProt O75888 105-250); experiment: KinExA
T1 construct: KINEXA ligand; also called huAPRIL
T1 sequence: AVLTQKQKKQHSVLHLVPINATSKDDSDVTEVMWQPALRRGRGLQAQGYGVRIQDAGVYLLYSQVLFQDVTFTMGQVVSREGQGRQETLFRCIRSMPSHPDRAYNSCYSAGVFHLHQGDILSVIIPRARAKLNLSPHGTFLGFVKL
Protocol: (§1) Equilibrium measurements were performed using FLAG-tagged, recombinant huBAFF and huAPRIL ligands. Fixed ligand concentrations of human BAFF or human APRIL were incubated with serial dilutions of the variant BCMA ECD-Ig fusion polypeptides, and free ligand was detected in a KINEXA 3200 Instrument. variant BCMA ECD-Ig fusion polypeptides were first diluted in equilibration buffer (1×PBS, pH 7.4, 1 mg/ml BSA) to a range of concentrations from 10 nM to 100 fM. The linear portion of the dilution series was typically 2-fold. Ligands were diluted in equilibration buffer to fixed concentrations ranging from 5 to 20 pM and then incubated with the variant BCMA-Ig dilutions in total reaction volumes ranging from 4.5 to 15 ml. Samples were incubated at room temperature for 48-72 hours to reach equilibrium. For each data point, a fresh column of 850 μl of bead slurry coated with Variant BAv-238475-Ig was introduced into the KINEXA flow cell. Equilibrated samples ranging from 1 to 5 ml reaction volume were injected at a flow rate of 0.25 ml/min. […] The DyLight 649 fluorescent signal was detected using the red filter set (620/30 nanometer excitation filter, 670/40 nanometer emission filter, 645 nanometer dichroic filter) on the KinExA instrument and converted to a voltage signal that was directly proportional to the concentration of free ligand in the equilibrated sample.
(§2) The various fusion proteins described above were expressed and purified as described previously (Examples 2 and 3 for the CET1019AS based plasmids and Examples 7 and 8 for the pcDNA based plasmids). […] The BAv9-1-Ig Fc proteins typically exist in solution as a dimeric fusion protein. The purified fusion proteins were assayed for binding activity using BIACORE (Example 9) and KINEXA (Example 11) assays.

FLAG-tagged human BAFF [2] = target: T2, FLAG-tagged human BAFF (human, UniProt Q9Y275 134-285, limits assumed); experiment: KinExA
T2 construct: used in BIACORE (Ex. 9) and KINEXA (Ex. 11); also called huBAFF
Protocol: as §1, §2

[3] = target: T3, FLAG-tagged cynomolgous APRIL (cynomolgus monkey, UniProt A0ACM8R0G4 110-250 (rhesus entry)); experiment: BIACORE SPR
T3 construct: FLAG-tagged, expressed with TPA signal peptide; also called cyAPRIL
T3 sequence: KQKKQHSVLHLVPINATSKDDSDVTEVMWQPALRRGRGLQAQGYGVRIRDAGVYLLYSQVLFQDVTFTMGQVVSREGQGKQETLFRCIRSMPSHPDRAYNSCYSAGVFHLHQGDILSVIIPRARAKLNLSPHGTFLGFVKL
Protocol: (§3) For human BAFF, cynomolgus monkey APRIL, and mouse APRIL measurements, mouse monoclonal antibody (IgG1) anti-FLAG M2 (Sigma Aldrich, Cat. No. F1804) was immobilized on CM3 sensor chips (GE Healthcare, Cat. No. BR-1005-41) according to the manufacturer's protocol. Antibody was diluted to 30 μg/ml in immobilization buffer (10 mM pH 5±0.20; GE Healthcare; GE Healthcare, Catalog No. BR-1003-51). […] Unreacted sites were quenched with 35 μl of 1M ethanolamine-HCl, pH 8.5 (GE Healthcare, GE Healthcare, Cat. No. BR-1000-50). This procedure typically yielded 3,000-4,000 response units (RU) of coupled antibody.
(§4) The fusion polypeptides were diluted in HBS-EP buffer and flowed over ligand-coated sensor chips. The variant BCMA-Ig and surrogate control fusion proteins were injected at three concentrations (1.5 nM, 15 nM, and 150 nM at 30 μl/min for 2 minutes per association phase) in a single binding cycle, followed by a 20 minute incubation with HBS-EP buffer containing no protein at the same flow rate. A similar protocol was followed for Z-TACI-Ig, except that the injections were at 4.5 nM, 45 nM, and 450 nM.
as §2

FLAG-tagged human BAFF [4] = target: T2, FLAG-tagged human BAFF; experiment: BIACORE SPR
Protocol: as §3, §4, §2

[5] = target: T3, FLAG-tagged cynomolgous APRIL; experiment: BIACORE SPR; remark: listed apart in the source
From the text: as §3, with “The standard kinetic assay measures binding kinetics of trimeric ligand (e.g., human BAFF, cynomolgus monkey APRIL, mouse BAFF, or mouse APRIL) coated on sensor chips and dimeric analytes (e.g., variant BCMA-Ig fusion proteins) in the mobile phase. […] For” for “For”
as §4
(§5) The analyses described above were performed on protein preparations of representative variant BCMA ECD-Ig fusion polypeptides, as well as the Z-TACI-Ig and [S40G]huBCMA ECD-Ig control fusion polypeptides, and the data is presented in Table 1.

FLAG-tagged human BAFF [6] = target: T2, FLAG-tagged human BAFF; experiment: BIACORE SPR; remark: listed apart in the source
From the text: as §3, with “The standard kinetic assay measures binding kinetics of trimeric ligand (e.g., human BAFF, cynomolgus monkey APRIL, mouse BAFF, or mouse APRIL) coated on sensor chips and dimeric analytes (e.g., variant BCMA-Ig fusion proteins) in the mobile phase. […] For” for “For”
as §4, §5

[7] = target: T3, FLAG-tagged cynomolgous APRIL; experiment: BIACORE SPR; remark: listed apart in the source
Protocol: as §3, §4
(§6) Sequence optimization involved generating revertants from the variant BCMA ECD-Ig molecules using standard site-directed mutagenesis methods such as by SOEing as described herein above. Single as well as multiple revertants from twelve different variant-BCMA-pIg18 were generated, cloned in the pcDNA3.1 vector (Life Technologies, as described in Example 6), expressed and purified as described in Examples 6-8. The resulting proteins were assayed for their binding characteristics using Surface Plasmon Resonance as described in Example 9.

FLAG-tagged human BAFF [8] = target: T2, FLAG-tagged human BAFF; experiment: BIACORE SPR; remark: listed apart in the source
Protocol: as §3, §4, §6

[9] = target: T1, FLAG-tagged recombinant human APRIL; experiment: KinExA; remark: listed apart in the source
Protocol: as §1
(§7) The standard kinetic exclusion assays and data analyses described above were performed on protein preparations of various variant BCMA ECD-Ig fusion polypeptides, as well as Z-TACI-Ig and [S40G]huBCMA ECD-Ig fusion polypeptides. FIG. 8A, FIG. 8B, and Table 4 summarize the binding data for representative variant BCMA ECD-Ig polypeptides and controls in molar concentrations of huBAFF or huAPRIL determined by KINEXA binding assays.

FLAG-tagged human BAFF [10] = target: T2, FLAG-tagged human BAFF; experiment: KinExA; remark: listed apart in the source
Protocol: as §1, §7

[11] = target: T1, FLAG-tagged recombinant human APRIL; experiment: KinExA; remark: listed apart in the source
Protocol: as §1
(§8) Table 5 provides the selectivities of exemplary variant BCMA polypeptides with respect to BAFF and APRIL.

FLAG-tagged human BAFF [12] = target: T2, FLAG-tagged human BAFF; experiment: KinExA; remark: listed apart in the source
Protocol: as §1, §8

[13] = target: T3, FLAG-tagged cynomolgous APRIL; experiment: BIACORE SPR; NB = No binding
Protocol: as §3, §4
(§9) Using available information from the structures and published literature, several residues in BAv8-10 were targeted for substitution with conserved as well as non-conserved residues and their effect on BAFF and APRIL binding was assessed by BIACORE.

FLAG-tagged human BAFF [14] = target: T2, FLAG-tagged human BAFF; experiment: BIACORE SPR; NB = No binding
Protocol: as §3, §4, §9

Binder | Kd [1] | Kd (FLAG-tagged human BAFF [2]) | Kd [3] | Kd (FLAG-tagged human BAFF [4]) | also measured
B1 | 0.31 pM | 0.417 pM | 41.8 pM | 20.4 pM | 
B2 |  |  |  |  | fold improvement KD vs control [5]: 0.2 fold; fold improvement KD vs control (FLAG-tagged human BAFF [6]): 2.2 fold; fold improvement over control [7]: 0.4 fold; fold improvement over control (FLAG-tagged human BAFF [8]): 4.7 fold
B3 | 1.26 pM | 0.301 pM | 42.5 pM | 17.5 pM | 
B4 | 0.088 pM | 0.537 pM | 33.7 pM | 15.7 pM | 
B5 | 132 pM | 0.085 pM | 773 pM | 8.03 pM | Kd [9]: 132 pM; fold improvement over control [9]: 0.0012 fold; Kd (FLAG-tagged human BAFF [10]): 0.0847 pM; fold improvement over control (FLAG-tagged human BAFF [10]): 2660 fold; Selectivity for huAPRIL (KD BAFF/KD APRIL) [11]: 0.001 ratio; Selectivity for huBAFF (KD APRIL/KD BAFF) (FLAG-tagged human BAFF [12]): 1560 ratio
B6 |  |  |  |  | binding result [13]: no binding (tested: 150 nM); binding result (FLAG-tagged human BAFF [14]): no binding (tested: 150 nM)
